Reference: US20120129766A1 (IRM, published 2012)

T1: human β-klotho (human, UniProt Q86Z14 1-1044)
T1 sequence (looked up): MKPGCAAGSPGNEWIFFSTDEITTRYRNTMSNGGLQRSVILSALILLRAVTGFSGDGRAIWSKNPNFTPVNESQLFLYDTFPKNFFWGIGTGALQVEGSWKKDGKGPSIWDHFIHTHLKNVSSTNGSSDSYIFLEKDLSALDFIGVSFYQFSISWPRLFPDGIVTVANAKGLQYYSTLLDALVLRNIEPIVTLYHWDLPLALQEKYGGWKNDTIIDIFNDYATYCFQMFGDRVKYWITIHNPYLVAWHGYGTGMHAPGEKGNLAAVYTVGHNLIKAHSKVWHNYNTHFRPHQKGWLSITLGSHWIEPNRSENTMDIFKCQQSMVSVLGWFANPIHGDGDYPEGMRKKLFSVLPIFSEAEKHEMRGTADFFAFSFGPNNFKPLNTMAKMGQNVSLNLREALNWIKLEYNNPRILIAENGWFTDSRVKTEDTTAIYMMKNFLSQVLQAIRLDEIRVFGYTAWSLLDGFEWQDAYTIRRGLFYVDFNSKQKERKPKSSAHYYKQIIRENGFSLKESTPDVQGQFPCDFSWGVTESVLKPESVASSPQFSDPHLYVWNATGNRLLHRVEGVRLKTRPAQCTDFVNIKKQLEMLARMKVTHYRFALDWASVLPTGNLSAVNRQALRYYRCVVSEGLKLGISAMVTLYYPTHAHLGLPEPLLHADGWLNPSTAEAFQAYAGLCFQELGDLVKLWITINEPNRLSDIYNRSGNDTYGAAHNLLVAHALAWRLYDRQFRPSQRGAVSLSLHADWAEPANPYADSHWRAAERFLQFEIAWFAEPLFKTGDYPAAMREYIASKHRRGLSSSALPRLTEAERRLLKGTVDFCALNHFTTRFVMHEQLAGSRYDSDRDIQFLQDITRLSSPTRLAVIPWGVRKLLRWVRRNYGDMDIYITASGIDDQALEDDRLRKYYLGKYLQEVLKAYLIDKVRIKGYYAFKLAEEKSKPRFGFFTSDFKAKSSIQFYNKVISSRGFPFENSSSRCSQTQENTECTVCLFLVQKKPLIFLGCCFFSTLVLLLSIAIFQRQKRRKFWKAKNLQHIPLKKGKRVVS


What follows are binders tested against T1, human β-klotho (assay: cell-based or functional assay).

| Binder | EC50 (nM), pERK In Cell Western [nM] | Fold-WT (EC50 of variant / EC50 of FGF21-WT) [fold] |
| --- | --- | --- |
| hFGF21(33-209)-V5 (ligand) DSSPLLQFGGQVRQRYLYTDDDQQTEAHLEIREDGTVGGAAHQSPESLLQLKALKPGVIQILGVKASRFLCQKPDGALYGSLHFDPEACSFRELLLENGYNVYQSEAHGLPLHLPGNRSPHRDPASQGPARFLPLPGLPPALPEPPGILAPQPPDVGSSDPLAMVGPSQARSPSYAS | 26 | 9.3 |
| hFGF21(33-209)-V14pool 1-N-40 kDa bPEG-AL (ligand, 40 kDa branched PEG (aldehyde reagent) on the N-terminal amine) DSSPLLQFGGQVRQRYLYTDDAQETEAHLEIREDGTVGGAAHQSPESLLELKALKPGVIQILGVKTSRFLCQKPDGALYGSLHFDPEACSFRELLLENGYNVYQSEAHGLPLHLPGNRSPHRDPAPQGPARFLPLPGLPPALPEPPGILAPQPPDVGSSDPLAMVGPSQGRSPSYAS | 107 | 22 |
| hFGF21(33-209)-V13 (ligand) DSSPLLQFGGQVRQRYLYTDDDQQTEAHLEIREDGTVGGAAHQSPESLLQLKALKPGVIQILGVKASRFLCQKPDGALYGSLHFDPEACSFRELLLENGYNVYQSEAHGLPLHLPGNRSPHRDPAPQGPARFLPLPGLPPALPEPPGILAPQPPDVGSSDPLAMVGPSQGRSPSYAS | 11 | 4 |
| hFGF21(33-209)-V14-pool2 (ligand) DSSPLLQFGGQVRQRYLYTDDAQETEAHLEIREDGTVGGAAHQSPESLLELKALKPGVIQILGVKTSRFLCQKPDGALYGSLHFDPEACSFRELLLEDGYNVYQSEAHGLPLHLPGNRSPHRDPAPQGPARFLPLPGLPPALPEPPGILAPQPPDVGSSDPLAMVGPSQGRSPSYAS | 5.3 | 1.4 |
| hFGF21(33-209)-V12 (ligand) DSSPLLQFGGQVRQRYLYTDDDQQTEAHLEIREDGTVGGAAHQSPESLLQLKALKPGVIQILGVQTSRFLCQKPDGALYGSLHFDPEACSFRELLLENGYNVYQSEAHGLPLHLPGNRSPHRDPAPQGPARFLPLPGLPPALPEPPGILAPQPPDVGSSDPLAMVGPSQGRSPSYAS | 14 | 5 |
| hFGF21(33-209)-V10 (ligand) DSSPLLQFGGQVRQRYLYTDDAQETEAHLEIREDGTVGGAAHQSPESLLQLKALKPGVIQILGVKASRFLCQKPDGALYGSLHFDPEACSFRELLLENGYNVYQSETHGLPLHLPGNKSPHRDPASQGPARFLPLPGLPPALPEPPGILAPQPPDVGSSDPLAMVGPSQARSPSYAS | 18 | 3.3 |
| hFGF21(33-209)-V11 (ligand) DSSPLLQFGGQVRQRYLYTDDDQQTEAHLEIREDGTVGGAAHQSPESLLELKALKPGVIQILGVKTSRFLCQKPDGALYGSLHFDPEACSFRELLLENGYNVYQSEAHGLPLHLPGNRSPHRDPAPQGPARFLPLPGLPPALPEPPGILAPQPPDVGSSDPLAMVGPSQGRSPSYAS | 28 | 18 |
| hFGF21(33-209)-V14-pool1 (ligand) DSSPLLQFGGQVRQRYLYTDDAQETEAHLEIREDGTVGGAAHQSPESLLELKALKPGVIQILGVKTSRFLCQKPDGALYGSLHFDPEACSFRELLLENGYNVYQSEAHGLPLHLPGNRSPHRDPAPQGPARFLPLPGLPPALPEPPGILAPQPPDVGSSDPLAMVGPSQGRSPSYAS | 6.7 | 1.4 |
